According to article PMC12354661:
pKd: −log10 of the molar value.

Columns and labels:
[1] = biological target: T1, C-type lectin-like molecule-1 (CLL-1), immobilized on magnetic beads or SPR chip (UniProt Q5QGZ9); experiment: flow cytometry (bead binding); conditions: Flow cytometry: 100 nM FAM-aptamer, 10 uL MB-CLL-1 in 200 uL DPBS, room temperature, 30 min, 150 rpm, 3 DPBS washes, SPR buffer and temperature not stated
T1 sequence: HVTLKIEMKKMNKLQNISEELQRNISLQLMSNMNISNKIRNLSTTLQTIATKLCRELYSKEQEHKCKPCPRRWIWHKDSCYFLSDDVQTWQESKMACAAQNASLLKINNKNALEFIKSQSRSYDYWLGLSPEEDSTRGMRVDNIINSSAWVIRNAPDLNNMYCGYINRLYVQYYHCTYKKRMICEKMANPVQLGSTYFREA

[2] = biological target: T1, C-type lectin-like molecule-1 (CLL-1), immobilized on magnetic beads or SPR chip; experiment: SPR; conditions: aptamer 0.000244-0.0625 uM, Flow cytometry: 100 nM FAM-aptamer, 10 uL MB-CLL-1 in 200 uL DPBS, room temperature, 30 min, 150 rpm, 3 DPBS washes, SPR buffer and temperature not stated

AACACTGGGGGCTGCTCGGGATTGTCGGACGTGGTG [Aptamer-4 (Apt-4)]
binding signal (% FITC-positive beads) ([1]; 100 nM aptamer): 2.84

ATTACCAGGGACCGAAGGCAAAACTATGATCGGTGG [Aptamer-2 (Apt-2)]
pKd [2]: 7.81 | binding signal (% FITC-positive beads) ([1]; 100 nM aptamer): 94.3 | binding signal (% FITC-positive beads) ([1]; 100 nM aptamer, specificity experiment): 100

CACGAACCGGGGAGGGCGGGCGGGTTGGTGTCGTGC [Aptamer-3 (Apt-3)]
binding signal (% FITC-positive beads) [1]: 1.23

TCGCGAAGGGTGGGGACTGCTCGGGATTGCGGATGC [Aptamer-1 (Apt-1)]
binding signal (% FITC-positive beads) ([1]; 100 nM aptamer, text gives 3.28): 3.26
